According to patent EP4389150A1, “CONJUGATE COMPOUNDS AND THEIR USE IN CANCER TREATMENT AND DIAGNOSIS” (Technische Universität München, priority 2022, dated 2024):
Where a SMILES comes first, the peptide text is derived from it. [ ]: non-standard residue; d: D form. The star is where a group is joined. X1 = CN(Cc1ccc(-c2[nH]c3cc(F)cc4c3c2CCNC4=O)cc1)C(=O)CCS*; EuK = O=C(O)CC[C@H](NC(=O)N[C@@H](CCCCN*)C(=O)O)C(=O)O; Ahx = NCCCCCC(=O)O; Mpa = O=C(O)CCS

Columns and labels:
[1] = molecular target: prostate-specific membrane antigen (PSMA) (UniProt Q04609); test: competition with [68Ga]-PSMA-617 (0.4 nM) on LNCaP cells, 60 min on ice
prostate-specific membrane antigen (PSMA), sequence (Q04609 whole entry): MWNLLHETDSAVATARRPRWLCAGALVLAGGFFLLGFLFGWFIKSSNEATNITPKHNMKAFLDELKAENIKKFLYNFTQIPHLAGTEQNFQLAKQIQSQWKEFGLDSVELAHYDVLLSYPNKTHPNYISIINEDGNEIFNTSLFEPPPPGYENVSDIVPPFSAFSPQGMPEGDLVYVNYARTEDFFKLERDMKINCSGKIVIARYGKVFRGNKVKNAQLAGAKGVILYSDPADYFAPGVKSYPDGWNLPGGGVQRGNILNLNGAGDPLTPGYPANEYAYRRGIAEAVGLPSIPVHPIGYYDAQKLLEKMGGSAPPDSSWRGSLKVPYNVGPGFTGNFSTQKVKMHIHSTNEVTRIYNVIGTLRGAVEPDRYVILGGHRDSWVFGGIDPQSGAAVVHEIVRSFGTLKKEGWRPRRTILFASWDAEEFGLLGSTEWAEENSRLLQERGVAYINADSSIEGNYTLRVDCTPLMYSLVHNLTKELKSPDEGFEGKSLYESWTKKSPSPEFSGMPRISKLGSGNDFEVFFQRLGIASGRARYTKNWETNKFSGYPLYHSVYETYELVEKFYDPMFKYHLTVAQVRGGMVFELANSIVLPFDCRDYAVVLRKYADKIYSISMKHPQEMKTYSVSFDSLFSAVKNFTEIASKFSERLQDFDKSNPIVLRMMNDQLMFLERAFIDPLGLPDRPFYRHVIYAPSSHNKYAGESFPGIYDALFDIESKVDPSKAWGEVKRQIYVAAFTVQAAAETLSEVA

[2] = molecular target: prostate-specific membrane antigen (PSMA) (UniProt Q04609); test: cell uptake of 68Ga-labelled ligand (0.4 nM) on LNCaP cells, gamma counting
[3] = Lipophilicity, n-octanol/PBS distribution coefficient; format: physicochemical; conditions: pH 7.4
Experimental: Lipophilicity of the conjugates was determine after radiolabeling with ^68Ga. The PSMA ligand (0.80 MBq) was dissolved in PBS (500 µL/pH 7.4) in a reaction vial (1.5 mL; n = 10). Afterwards, n-octanol was added (500 µL) and the mixture was rigorously vortexed for 3 min. Subsequent centrifugation (Biofuge 15, Heraus Sepatech, Osterode, Germany) at 13,000 rpm for 5 min led to a phase separation. After measuring 100 µL of each phase in a γ-counter, the distribution coefficient (logD(O/PBS)) was calculated with Microsoft Excel.

PSMA = molecular target: T1, PSMA (Homo sapiens, UniProt Q04609); test: IC50 determination by competition with [68Ga]-PSMA-617 on LNCaP cells; format: binding; conditions: [68Ga]-PSMA-617 0.4 nM, 60 min on ice, natGa-labelled ligands
T1 construct: endogenous in cells; host or cells: LNCaP cells
T1 sequence (Q04609 whole entry): as above
Experimental: In the meantime, dilution series of the compounds were prepared in 1% BSA (w/v)/HBSS in a separate 96 U-bottom deep well plate ranging from 12 µM to 153.6 pM in 1:5 dilution steps. Next, solutions (25 µL/well) of either 1% BSA (w/v)/HBSS (control) or of the respective dilution series were transferred to the LNCaP cells containing plate. Hereby, each concentration was pipetted in triplicates and each experiment was repeated three times. Subsequently, [^68Ga]-PSMA-617 (25 µL/well; 0.4 nM final concentration; AM = 26-30 MBq/nmol) in 1% BSA (w/v)/HBSS was added to all wells and the plate was incubated for 60 min on ice. Afterwards, the experiment was terminated by centrifugation at 600 g for 3 min and removal of the supernatant. The cells were then washed with ice-cold HBSS (150 µL/well), centrifuged (600 g, 3 min), and the supernatant as well as the washing fraction were combined, representing the amount of free, unbound radioligand. Bound radioligand was obtained by lysis of the cells with 1.0 N NaOH (150 µL/well; 10 min on ice). Afterwards, the plate was washed a second time with 1.0 N NaOH (150 µL/well). Hereby, the washing step was combined with the NaOH fraction. The quantification of bound and free radioligand was finally accomplished via measuring the samples in a γ-counter.

Compound | IC50 [1] [nM] | % bound of total applied dose [2] [%] | logD (n-oct/PBS) [3] | IC50 (PSMA) [nM]
PSMARuc-14: Ruc-SS-MMC-D-Asp-D-Asp-β-Ala-TXA-L-Nal-KuE (peptide) | 2.19 | 6.46 | – | –
Ruc-SS-TXA-L-Nal-KuE (PSMARuc-7) (peptide) | 9.52 | – | – | –
PSMARuc-16: DOTAGA-D-Lys(Ruc-SS)-D-Asp-D-Asp-β-Ala-TXA-L-Nal-D-Lys-EuE (peptide) | 0.82 | 5.32 | – | –
PSMARuc-15: Ruc-SS-MMC-D-Asp-D-Asp-D-Tyr-D-Phe-D-Phe-Ahx-Ahx-KuE (peptide) | 4.28 | 6.5 | – | –
PSMARuc-13: DOTAGA-D-Lys(Ruc-Sub)-D-Asp-β-Ala-TXA-L-Nal-KuE (peptide) | 0.67 | 10.8 | – | –
PSMARuc-12: DOTAGA-D-Lys(Ruc-SS)-D-Asp-D-Tyr-D-Phe-D-Phe-Ahx-Ahx-KuE (peptide) | 2.12 | 3.48 | – | –
PSMARuc-17: DOTAGA-D-Lys(Ruc-SS)-D-Asp-D-Asp-D-Tyr-D-Phe-D-Phe-Ahx-D-Lys-EuE (peptide) | 1.38 | 5.84 | – | –
PSMARuc-18: Ruc-SS-MMC-D-Asp-D-Asp-β-Ala-TXA-L-Nal-D-Lys-EuE (peptide) | 0.69 | 6.54 | – | –
CN(Cc1ccc(-c2[nH]c3cc(F)cc4c3c2CCNC4=O)cc1)C(=O)CCSSCCC(=O)NC[C@H]1CC[C@H](C(=O)N[C@@H](Cc2ccc3ccccc3c2)C(=O)NCCCC[C@H](NC(=O)N[C@@H](CCC(=O)O)C(=O)O)C(=O)O)CC1 [Conjugate 7] | – | – | -2.98 ± 0.21 | 9.52 ± 2.41
PSMARuc-10: DOTAGA-D-Lys(Ruc-SS)-D-Asp-D-Tyr-D-Phe-D-Phe-Ahx-KuE (peptide) | 1.34 | 6.18 | – | –
Ruc-SS-D-Asp-D-Tyr-D-Phe-D-Phe-Ahx-KuE (PSMARuc-8) (peptide) | 1.58 | – | – | –
PSMARuc-11: DOTAGA-D-Lys(Ruc-SS)-D-Asp-D-Tyr-D-Phe-L-Nal-Ahx-KuE (peptide) | 5.34 | 6.45 | – | –
PSMARuc-9: DOTAGA-D-Lys(Ruc-SS)-D-Asp-β-Ala-TXA-L-Nal-KuE (peptide) | 3.03 | 8 | – | –
PSMA-617 | – | 10.2 | – | –
CN(Cc1ccc(-c2[nH]c3cc(F)cc4c3c2CCNC4=O)cc1)C(=O)CCSSCCC(=O)N[C@H](CC(=O)O)C(=O)N[C@H](Cc1ccc(O)cc1)C(=O)N[C@H](Cc1ccccc1)C(=O)N[C@H](Cc1ccccc1)C(=O)NCCCCCC(=O)NCCCC[C@H](NC(=O)N[C@@H](CCC(=O)O)C(=O)O)C(=O)O [Conjugate 8] ([Mpa](X1)[dD][dY][dF][dF][Ahx]-EuK) | – | – | -2.83 ± 0.07 | 1.58 ± 0.94
